[ ]: non-standard residue; d: D form. Ygp = O-(8x polyethylene glycol-amino)-tyrosine; Yn3 = O-(9x polyethylene glycol-azido)-tyrosine; hSer = N[C@@H](CCO)C(=O)O; Nle = CCCC[C@H](N)C(=O)O

For this assay, the target named is T1, IL-2 receptor βγ complex on pan T cells (human, UniProt P14784 27-551; P31785 23-369).
T1 sequence (looked up) 1: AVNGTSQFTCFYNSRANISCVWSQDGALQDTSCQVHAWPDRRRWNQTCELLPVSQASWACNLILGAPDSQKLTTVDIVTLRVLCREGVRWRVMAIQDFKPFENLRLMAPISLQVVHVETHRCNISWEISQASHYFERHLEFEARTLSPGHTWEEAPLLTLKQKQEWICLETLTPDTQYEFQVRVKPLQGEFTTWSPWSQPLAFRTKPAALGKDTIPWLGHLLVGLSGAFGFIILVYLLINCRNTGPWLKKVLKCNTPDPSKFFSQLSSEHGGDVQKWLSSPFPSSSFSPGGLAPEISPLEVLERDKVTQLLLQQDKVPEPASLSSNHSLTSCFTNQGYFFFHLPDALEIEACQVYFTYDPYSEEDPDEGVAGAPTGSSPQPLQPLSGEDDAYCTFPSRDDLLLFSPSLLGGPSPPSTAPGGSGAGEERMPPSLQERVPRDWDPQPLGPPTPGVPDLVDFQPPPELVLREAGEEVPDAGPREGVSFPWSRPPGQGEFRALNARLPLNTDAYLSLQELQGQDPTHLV
T1 sequence (looked up) 2: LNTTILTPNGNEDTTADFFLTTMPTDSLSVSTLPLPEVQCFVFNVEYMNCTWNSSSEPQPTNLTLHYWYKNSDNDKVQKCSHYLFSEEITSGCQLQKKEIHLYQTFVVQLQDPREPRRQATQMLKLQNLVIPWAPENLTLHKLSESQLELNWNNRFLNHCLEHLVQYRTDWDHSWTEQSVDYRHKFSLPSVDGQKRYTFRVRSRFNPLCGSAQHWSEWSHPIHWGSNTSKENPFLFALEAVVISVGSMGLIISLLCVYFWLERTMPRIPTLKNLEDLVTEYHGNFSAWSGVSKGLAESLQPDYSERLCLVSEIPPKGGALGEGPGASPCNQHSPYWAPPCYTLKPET
In words: cell-based or functional assay.

B1: CMP-147, MMP2 cleaved (ligand)
chain: APTSSSTKKTQLKLEHLLLDLQ[Nle]ILNGINNYKNPKLTR[Nle]L[hSer][Yn3]KF[Ygp][Nle]PKKATELKHLQCLEEELKPLEEVL[hSer]LAQSKNFHLRPRDLISNINVIVLELKGSETTF[hSer]CEYADETATIVEFLNRWITFSQSIISTLT
modifications: not fully specified (residue 13); ends and bridges not checked; also: MMP2-cut remnant of cleavable moiety on Lys13 side chain, not given here
As to B1, the “Average EC50, pSTAT5 assay in pan T cells, MMP2 cleaved molecule” value (from here on “Average EC50 … MMP2 cleaved molecule”) came to 1.29 nM.

B2: CMP-146, MMP2 cleaved (ligand)
chain: APTSSSTKKTKLQLEHLLLDLQ[Nle]ILNGINNYKNPKLTR[Nle]L[hSer][Yn3]KF[Ygp][Nle]PKKATELKHLQCLEEELKPLEEVL[hSer]LAQSKNFHLRPRDLISNINVIVLELKGSETTF[hSer]CEYADETATIVEFLNRWITFSQSIISTLT
modifications: not fully specified (residue 11); ends and bridges not checked; also: MMP2-cut remnant of cleavable moiety on Lys11 side chain, not given here
As to B2, the “Average EC50 … MMP2 cleaved molecule” value turned out to be 0.92 nM.

B3: CMP-146 (ligand)
chain: APTSSSTKKTKLQLEHLLLDLQ[Nle]ILNGINNYKNPKLTR[Nle]L[hSer][Yn3]KF[Ygp][Nle]PKKATELKHLQCLEEELKPLEEVL[hSer]LAQSKNFHLRPRDLISNINVIVLELKGSETTF[hSer]CEYADETATIVEFLNRWITFSQSIISTLT
modifications: not fully specified (residue 11); ends and bridges not checked; also: cleavable moiety on Lys11 side chain, structure not given here
In the case of B3, the “Average EC50, pSTAT5 assay in pan T cells, intact molecule” value (shortened to “Average EC50 … intact molecule”) was 4.29 nM.

B4: CMP-144, MMP2 cleaved (ligand)
chain: APTSSSTKKTQLQLEHLLLDLQKILNGINNYKNPKLTR[Nle]L[hSer][Yn3]KF[Ygp][Nle]PKKATELKHLQCLEEELKPLEEVL[hSer]LAQSKNFHLRPRDLISNINVIVLELKGSETTF[hSer]CEYADETATIVEFLNRWITFSQSIISTLT
modifications: not fully specified (residue 23); ends and bridges not checked; also: MMP2-cut remnant of cleavable moiety on Lys23 side chain, not given here
Turning to B4, the “Average EC50 … MMP2 cleaved molecule” value is 0.63 nM.

B5: CMP-145, MMP2 cleaved (ligand)
chain: APTSSSTKKTQLQLEHLLLDLQKILNGINNYKNPKLTR[Nle]L[hSer][Yn3]KF[Ygp][Nle]PKKATELKHLQCLEEELKPLEEVL[hSer]LAQSKNFHLRPRDLISNINVIVLELKGSETTF[hSer]CEYADETATIVEFLNRWITFSQSIISTLT
modifications: not fully specified (residue 23, bridges); also: Lys23 side chain bears KKPLGLAG (branched PEG) peptide cut by MMP2, remnants stay attached, cut site not given here
In the case of B5, the “Average EC50 … MMP2 cleaved molecule” value was determined as 1.43 nM.

B6: CMP-147 (ligand)
chain: APTSSSTKKTQLKLEHLLLDLQ[Nle]ILNGINNYKNPKLTR[Nle]L[hSer][Yn3]KF[Ygp][Nle]PKKATELKHLQCLEEELKPLEEVL[hSer]LAQSKNFHLRPRDLISNINVIVLELKGSETTF[hSer]CEYADETATIVEFLNRWITFSQSIISTLT
modifications: not fully specified (residue 13); ends and bridges not checked; also: cleavable moiety on Lys13 side chain, structure not given here
As for B6, the “Average EC50 … intact molecule” value was found to be 3.86 nM.

B7: CMP-149 (ligand)
chain: APTSSSTKKTQLQLEHLLKDLQ[Nle]ILNGINNYKNPKLTR[Nle]L[hSer][Yn3]KF[Ygp][Nle]PKKATELKHLQCLEEELKPLEEVL[hSer]LAQSKNFHLRPRDLISNINVIVLELKGSETTF[hSer]CEYADETATIVEFLNRWITFSQSIISTLT
modifications: not fully specified (residue 19); ends and bridges not checked; also: cleavable moiety on Lys19 side chain, structure not given here
B7: the “Average EC50 … intact molecule” value turned out to be 46.7 nM.

B8: CMP-150, MMP2 cleaved (ligand)
chain: APTSSSTKKTQLQLEHLLLDLK[Nle]ILNGINNYKNPKLTR[Nle]L[hSer][Yn3]KF[Ygp][Nle]PKKATELKHLQCLEEELKPLEEVL[hSer]LAQSKNFHLRPRDLISNINVIVLELKGSETTF[hSer]CEYADETATIVEFLNRWITFSQSIISTLT
modifications: also: K22 side chain bears remnant of cleavable peptide after MMP2 cut, cut site not given here
With B8, the “Average EC50 … MMP2 cleaved molecule” value was 0.45 nM.

B9: CMP-143, MMP2 cleaved (ligand)
chain: APTSSSTKKTQLQLEHLLLDLQKILNGINNYKNPKLTR[Nle]L[hSer][Yn3]KF[Ygp][Nle]PKKATELKHLQCLEEELKPLEEVL[hSer]LAQSKNFHLRPRDLISNINVIVLELKGSETTF[hSer]CEYADETATIVEFLNRWITFSQSIISTLT
modifications: not fully specified (residue 23); ends and bridges not checked; also: MMP2-cut remnant of cleavable moiety on Lys23 side chain, not given here
B9: the “Average EC50 … MMP2 cleaved molecule” value was 1.99 nM.

B10: CMP-148, MMP2 cleaved (ligand)
chain: APTSSSTKKTQLQLKHLLLDLQ[Nle]ILNGINNYKNPKLTR[Nle]L[hSer][Yn3]KF[Ygp][Nle]PKKATELKHLQCLEEELKPLEEVL[hSer]LAQSKNFHLRPRDLISNINVIVLELKGSETTF[hSer]CEYADETATIVEFLNRWITFSQSIISTLT
modifications: not fully specified (residue 15); ends and bridges not checked; also: MMP2-cut remnant of cleavable moiety on Lys15 side chain, not given here
As for B10, the “Average EC50 … MMP2 cleaved molecule” value turned out to be 0.95 nM.

B11: CMP-142, MMP2 cleaved (ligand)
chain: APTSSSTKKTQLQLEHLLLDLQKILNGINNYKNPKLTR[Nle]L[hSer][Yn3]KF[Ygp][Nle]PKKATELKHLQCLEEELKPLEEVL[hSer]LAQSKNFHLRPRDLISNINVIVLELKGSETTF[hSer]CEYADETATIVEFLNRWITFSQSIISTLT
modifications: not fully specified (residue 23); ends and bridges not checked; also: MMP2-cut remnant of cleavable moiety on Lys23 side chain, not given here
As for B11, the “Average EC50 … MMP2 cleaved molecule” value was found to be 0.56 nM.

B12: CMP-149, MMP2 cleaved (ligand)
chain: APTSSSTKKTQLQLEHLLKDLQ[Nle]ILNGINNYKNPKLTR[Nle]L[hSer][Yn3]KF[Ygp][Nle]PKKATELKHLQCLEEELKPLEEVL[hSer]LAQSKNFHLRPRDLISNINVIVLELKGSETTF[hSer]CEYADETATIVEFLNRWITFSQSIISTLT
modifications: not fully specified (residue 19); ends and bridges not checked; also: MMP2-cut remnant of cleavable moiety on Lys19 side chain, not given here
With B12, the “Average EC50 … MMP2 cleaved molecule” value stood at 9.56 nM.

B13: CMP-150 (ligand)
chain: APTSSSTKKTQLQLEHLLLDLK[Nle]ILNGINNYKNPKLTR[Nle]L[hSer][Yn3]KF[Ygp][Nle]PKKATELKHLQCLEEELKPLEEVL[hSer]LAQSKNFHLRPRDLISNINVIVLELKGSETTF[hSer]CEYADETATIVEFLNRWITFSQSIISTLT
modifications: not fully specified (residue 22); ends and bridges not checked; also: cleavable moiety on Lys22 side chain, structure not given here
For B13, the “Average EC50 … intact molecule” value came out at 6.38 nM.

B14: CMP-148 (ligand)
chain: APTSSSTKKTQLQLKHLLLDLQ[Nle]ILNGINNYKNPKLTR[Nle]L[hSer][Yn3]KF[Ygp][Nle]PKKATELKHLQCLEEELKPLEEVL[hSer]LAQSKNFHLRPRDLISNINVIVLELKGSETTF[hSer]CEYADETATIVEFLNRWITFSQSIISTLT
modifications: not fully specified (residue 15); ends and bridges not checked; also: cleavable moiety on Lys15 side chain, structure not given here
In the case of B14, the “Average EC50 … intact molecule” value is 3.57 nM.
